Assay results from article doi:10.1101/2024.04.06.588386, “Structural plasticity of 2A proteins in the Parechovirus family” (bioRxiv, 2024).

Target: the molecule itself
Assay: SEC-SAXS; Superdex S75 Increase 5/150; 20 mM Hepes-NaOH pH 7.4, 150 mM NaCl, 4 mM TCEP, 1% v/v glycerol; molecular weight estimates and fit of crystallographic dimers (CRYSOL, NMA)

B1: HPeV1-2A^FL (full-length 2A^H/NC protein of human parechovirus 1) (natural protein)
chain: SPYGQQPQNRMMKLAYLDRGFYKHYGIIVGDHVYQLDSDDIFKTALTGKAKFTKTKLTSDWVIEEECELDYFRIKYLESAVDSEHIFSVDKNCETIAKDIFGTHTLSQHQAIGLVGTILLTAGLMSTIKTPVNAVTIKEFFNHAIDGDEQ
notes: also called full-length HPeV1-2A
  stoichiometry N: 2
